From publication PMC13330650 (Matrix biology : journal of the International Society for …, 2025)

Legend:
UGDH T325D = UGDH T325D obligate dimer; cited from earlier work
[1] = Thermofluor Stability Assay (thermal denaturation) of purified UGDH; assay type: physicochemical, human; details: for Tm Apo: apo enzyme; for Tm Holo: holoenzyme complex (substrate and cofactor)
From the text: We first generated the UGDH S316 point mutants in a bacterial construct that expressed the proteins with a six-histidine fusion to facilitate purification by nickel affinity chromatography as we have done previously. […] However, UGDH S316D yields were somewhat lower as a result of protein precipitation following purification. To compare the intrinsic stability of the S316 point mutants, we used a modified version of the Thermofluor Stability Assay, which we have used previously as a preliminary indicator of UGDH quaternary assembly. The UGDH WT and UGDH S316A enzymes had significant increases in melting temperature (Tm) upon addition of either substrate or cofactor and were stabilized by almost 20°C in the holoenzyme complex as expected.
Purified S316 mutants were compared to the UGDH WT enzyme using the following approaches as previously described. Enzymatic activity was evaluated by steady state kinetics in the presence and absence of the endogenous inhibitor UDP-Xylose to compare Michaelis constants and IC50 values. Intrinsic stability was assessed by thermal denaturation and quaternary structure was determined by size exclusion chromatography. Binding of UDP-Xylose to recombinant UGDH and mutants was measured by isothermal titration calorimetry using the MicroCal PEAQ-ITC (Malvern Panalytical). UGDH WT (50 μM in 0.1 M sodium phosphate buffer, pH 7.4) was placed in the cell, with UDP-Xyl (250 μM) in the syringe. Binding heats were corrected for the heat of dilution and analyzed using the MicroCal PEAQ-ITC Analysis Software, employing a single-site binding model to determine Kd values.

B1: UGDH T325D: obligate dimeric UGDH mutant, T325 to aspartate (protein, UniProt O60701 1-494, looked up, variant T325D)
UDP-glucose 6-dehydrogenase: MFEIKKICCIGAGYVGGPTCSVIAHMCPEIRVTVVDVNESRINAWNSPTLPIYEPGLKEVVESCRGKNLFFSTNIDDAIKEADLVFISVNTPTKTYGMGKGRAADLKYIEACARRIVQNSNGYKIVTEKSTVPVRAAESIRRIFDANTKPNLNLQVLSNPEFLAEGTAIKDLKNPDRVLIGGDETPEGQRAVQALCAVYEHWVPREKILTTNTWSSELSKLAANAFLAQRISSINSISALCEATGADVEEVATAIGMDQRIGNKFLKASVGFGGSCFQKDVLNLVYLCEALNLPEVARYWQQVIDMNDYQRRRFASRIIDSLFNDVTDKKIAILGFAFKKDTGDTRESSSIYISKYLMDEGAHLHIYDPKVPREQIVVDLSHPGVSEDDQVSRLVTISKDPYEACDGAHAVVICTEWDMFKELDYERIHKKMLKPAFIFDGRRVLDGLHNELQTIGFQIETIGKKVSSKRIPYAPSGEIPKFSLQDPPNKKPKV
Vmax values (UGDH T325D): 65 to 75 nmol/min/mg

B2: WT: purified recombinant human wild-type UGDH (protein)
chain: MFEIKKICCIGAGYVGGPTCSVIAHMCPEIRVTVVDVNESRINAWNSPTLPIYEPGLKEVVESCRGKNLFFSTNIDDAIKEADLVFISVNTPTKTYGMGKGRAADLKYIEACARRIVQNSNGYKIVTEKSTVPVRAAESIRRIFDANTKPNLNLQVLSNPEFLAEGTAIKDLKNPDRVLIGGDETPEGQRAVQALCAVYEHWVPREKILTTNTWSSELSKLAANAFLAQRISSINSISALCEATGADVEEVATAIGMDQRIGNKFLKASVGFGGSCFQKDVLNLVYLCEALNLPEVARYWQQVIDMNDYQRRRFASRIIDSLFNTVTDKKIAILGFAFKKDTGDTRESSSIYISKYLMDEGAHLHIYDPKVPREQIVVDLSHPGVSEDDQVSRLVTISKDPYEACDGAHAVVICTEWDMFKELDYERIHKKMLKPAFIFDGRRVLDGLHNELQTIGFQIETIGKKVSSKRIPYAPSGEIPKFSLQDPPNKKPKV
modifications: left off: His6, end not stated, state not stated
notes: purified recombinant human wild-type UGDH
Tm Apo [1]: 50±0.4 °C | Tm Holo [1]: 68±1.7 °C

B3: S316A: purified recombinant human UGDH, phosphodeficient serine 316 to alanine point mutant (protein)
chain: MFEIKKICCIGAGYVGGPTCSVIAHMCPEIRVTVVDVNESRINAWNSPTLPIYEPGLKEVVESCRGKNLFFSTNIDDAIKEADLVFISVNTPTKTYGMGKGRAADLKYIEACARRIVQNSNGYKIVTEKSTVPVRAAESIRRIFDANTKPNLNLQVLSNPEFLAEGTAIKDLKNPDRVLIGGDETPEGQRAVQALCAVYEHWVPREKILTTNTWSSELSKLAANAFLAQRISSINSISALCEATGADVEEVATAIGMDQRIGNKFLKASVGFGGSCFQKDVLNLVYLCEALNLPEVARYWQQVIDMNDYQRRRFAARIIDSLFNTVTDKKIAILGFAFKKDTGDTRESSSIYISKYLMDEGAHLHIYDPKVPREQIVVDLSHPGVSEDDQVSRLVTISKDPYEACDGAHAVVICTEWDMFKELDYERIHKKMLKPAFIFDGRRVLDGLHNELQTIGFQIETIGKKVSSKRIPYAPSGEIPKFSLQDPPNKKPKV
modifications: left off: His6, end not stated, state not stated
notes: purified recombinant human UGDH, phosphodeficient serine 316 to alanine point mutant
Tm Apo [1]: 49±0.2 °C | Tm Holo [1]: 66±3.0 °C

B4: S316D: purified recombinant human UGDH, phosphomimetic serine 316 to aspartate point mutant (protein)
chain: MFEIKKICCIGAGYVGGPTCSVIAHMCPEIRVTVVDVNESRINAWNSPTLPIYEPGLKEVVESCRGKNLFFSTNIDDAIKEADLVFISVNTPTKTYGMGKGRAADLKYIEACARRIVQNSNGYKIVTEKSTVPVRAAESIRRIFDANTKPNLNLQVLSNPEFLAEGTAIKDLKNPDRVLIGGDETPEGQRAVQALCAVYEHWVPREKILTTNTWSSELSKLAANAFLAQRISSINSISALCEATGADVEEVATAIGMDQRIGNKFLKASVGFGGSCFQKDVLNLVYLCEALNLPEVARYWQQVIDMNDYQRRRFADRIIDSLFNTVTDKKIAILGFAFKKDTGDTRESSSIYISKYLMDEGAHLHIYDPKVPREQIVVDLSHPGVSEDDQVSRLVTISKDPYEACDGAHAVVICTEWDMFKELDYERIHKKMLKPAFIFDGRRVLDGLHNELQTIGFQIETIGKKVSSKRIPYAPSGEIPKFSLQDPPNKKPKV
modifications: left off: His6, end not stated, state not stated
notes: purified recombinant human UGDH, phosphomimetic serine 316 to aspartate point mutant
Tm Apo [1]: 47±1.0 °C | Tm Holo [1]: 63±0.3 °C
